These results are taken from article PMC3898874.

Where “and” joins values, the source holds several entries; their conditions need not be identical. Identical values can stand only once.

In the test the target is T1, FLAG-tagged STAT1 (signal transducer and activator of transcription 1), P42224.
T1 chain: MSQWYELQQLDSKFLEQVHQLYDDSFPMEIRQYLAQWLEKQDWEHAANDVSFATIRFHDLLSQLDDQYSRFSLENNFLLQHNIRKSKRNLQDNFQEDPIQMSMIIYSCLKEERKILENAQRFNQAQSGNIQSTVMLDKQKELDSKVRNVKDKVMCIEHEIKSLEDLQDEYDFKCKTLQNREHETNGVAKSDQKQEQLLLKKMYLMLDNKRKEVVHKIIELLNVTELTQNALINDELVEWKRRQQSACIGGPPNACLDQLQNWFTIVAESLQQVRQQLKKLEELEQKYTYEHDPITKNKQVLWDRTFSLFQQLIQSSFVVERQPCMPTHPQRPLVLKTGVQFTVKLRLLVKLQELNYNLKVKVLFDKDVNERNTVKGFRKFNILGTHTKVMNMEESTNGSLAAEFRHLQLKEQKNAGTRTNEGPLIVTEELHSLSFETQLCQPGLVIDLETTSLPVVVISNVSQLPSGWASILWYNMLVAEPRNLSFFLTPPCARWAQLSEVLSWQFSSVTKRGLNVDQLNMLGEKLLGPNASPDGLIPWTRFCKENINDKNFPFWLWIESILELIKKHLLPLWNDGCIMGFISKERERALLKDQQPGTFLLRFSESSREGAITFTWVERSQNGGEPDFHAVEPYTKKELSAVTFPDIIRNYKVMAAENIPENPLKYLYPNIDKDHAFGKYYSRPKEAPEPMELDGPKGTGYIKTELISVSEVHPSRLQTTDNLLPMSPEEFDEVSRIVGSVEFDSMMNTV
The test is described as follows: co-IP; anti-FLAG M2 immunoprecipitation (protein A/G PLUS agarose, 4°C) from soluble whole-cell extracts (500 μg protein) of co-transfected HEK293T cells, untreated or treated 1 h with 50 U/ml IFNγ; extraction and wash buffer with 280 mM NaCl, 0.5% NP-40, 50 mM Tris/HCl pH 7.4; quantitative blots with anti-GFP and anti-β-arrestin1; control IP without FLAG-tagged STAT1. To be noted: remark: other sources report otherwise.

B1: FLAG-tagged STAT1 (signal transducer and activator of transcription 1), P42224 1-750 (natural protein)
chain: MSQWYELQQLDSKFLEQVHQLYDDSFPMEIRQYLAQWLEKQDWEHAANDVSFATIRFHDLLSQLDDQYSRFSLENNFLLQHNIRKSKRNLQDNFQEDPIQMSMIIYSCLKEERKILENAQRFNQAQSGNIQSTVMLDKQKELDSKVRNVKDKVMCIEHEIKSLEDLQDEYDFKCKTLQNREHETNGVAKSDQKQEQLLLKKMYLMLDNKRKEVVHKIIELLNVTELTQNALINDELVEWKRRQQSACIGGPPNACLDQLQNWFTIVAESLQQVRQQLKKLEELEQKYTYEHDPITKNKQVLWDRTFSLFQQLIQSSFVVERQPCMPTHPQRPLVLKTGVQFTVKLRLLVKLQELNYNLKVKVLFDKDVNERNTVKGFRKFNILGTHTKVMNMEESTNGSLAAEFRHLQLKEQKNAGTRTNEGPLIVTEELHSLSFETQLCQPGLVIDLETTSLPVVVISNVSQLPSGWASILWYNMLVAEPRNLSFFLTPPCARWAQLSEVLSWQFSSVTKRGLNVDQLNMLGEKLLGPNASPDGLIPWTRFCKENINDKNFPFWLWIESILELIKKHLLPLWNDGCIMGFISKERERALLKDQQPGTFLLRFSESSREGAITFTWVERSQNGGEPDFHAVEPYTKKELSAVTFPDIIRNYKVMAAENIPENPLKYLYPNIDKDHAFGKYYSRPKEAPEPMELDGPKGTGYIKTELISVSEVHPSRLQTTDNLLPMSPEEFDEVSRIVGSVEFDSMMNTV
Regarding B1, the fold stronger co-precipitation with FLAG-tagged STAT1 than β-arrestin1-GFP (signals normalised to inputs) was 3 fold and 6 fold.
